Measured values reported in US20230000974A1.

Tested on: T1, fluorogenic substrate (R&D systems, cat no. ES007), peptide YVADAPK between Mca and Dnp groups
T1 sequence: YVADAPK

## commercial ACE-2 from Sino Biological (cat no 10108H08H20)
  enzymatic activity assay using a fluorogenic substrate (fluorescence, excitation 320 nm, emission 405 nm): All four samples appeared to have similar levels of activity
